Here are results for two molecules from patent US11732048B2, “Anti-axl antagonistic antibodies” (BERGEN TEKNOLOGIOVERFØRING AS, priority 2016, dated 2023).

Like-named read-outs stand apart in the source and are kept apart here.

In experiment [1] the target is T1, human Axl (rhAxl-Fc chimera) (Homo sapiens, UniProt P30530).
T1 construct: Soluble recombinant antigens corresponding to the extracellular domains of members of the human TAM receptor family; Fc; purchased R&D Systems 154-AL
Put plainly: Biacore kinetic analysis (surface plasmon resonance) on immobilised rhAxl-Fc. The experiment is classed as binding. Here is the method:
Kinetic analysis of murine MAb 10G5 interacting with rhAxl immobilized on the surface of the Biacore sensor chip. Overlay plots of sensograms for different antibody concentrations (0.3-166.7 nM for murine 10G5) are shown. The precise kinetic analysis was performed using BIA evaluation software and curve fitting according to 1:1 Langmuir binding model. […]
Affinity determination of anti-Axl antibody 10G5 was performed at 25° C. by surface plasmon resonance measurements using Biacore 3000 instrument (GE Healthcare). As a solid antigen-coated surface, a sensor chip CM5 with immobilized rhAxl-Fc chimera (R&D Systems, Cat. no. 154-AL) at density 190 RU was used.
For the kinetics measurements, different concentrations of anti-Axl antibodies (from 0.3 to 666.7 nM) in HBS-EP buffer (Biacore, Cat. no. BR-1001-88) were injected at flow rate of 30 μL/min with 3 min injection time followed by 5 min dissociation (buffer alone). After each cycle, the surface was regenerated by 30 sec injection of a regeneration solution (10 mM HCl, 1 M NaCl) at flow rate 50 μL/min.
The kinetic association (on-rate, kon) and dissociation (off-rate, koff) rates were calculated using BIAevaluation software and 1:1 Langmuir binding model. The equilibrium dissociation constant (KD) was calculated as the koff/kon ratio. The half-life (t1/2) of the formed antibody-antigen complexes was calculated as the ln 2/koff ratio. […]
(SPR reads the build-up and loss of mass on a sensor chip optically.)

Experiment [2] addresses T1, human Axl (rhAxl-Fc chimera). Put plainly: Biacore binding analysis on immobilised human Axl. As to conditions: 10 μg/mL in HBS-EP, 25° C. As for the experimental part: (§1) All binding experiments were performed using Biacore 3000 instrument (GE Healthcare) at 25° C. Soluble recombinant antigens corresponding to the extracellular domains of members of the human TAM receptor family, Axl (rhAxl-Fc chimera; R&D Systems, Cat. no. 154-AL), Mer (rhMer-Fc chimera; R&D Systems, Cat. no. 891-MR) and Tyro3 (rhTyro3/Dtk-Fc chimera; R&D Systems, Cat. no. 859-DK) were immobilized on the surface of CM5 sensor chip using amine coupling at the surface density of 393.0, 303.6 and 364.0 resonance units (RU), respectively. The Biacore run was performed in an automatic mode using Binding analysis wizard. Samples containing MAb 10G5 at concentration 10 μg/mL in HBS-EP buffer (GE Healthcare) were injected over the surfaces with immobilized antigens at flow rate of 30 μL/min for 3 min (association) followed by 5 min dissociation.
(§2) The binding experiments were performed using Biacore 3000 instrument (GE Healthcare) at 25° C. The soluble recombinant antigens corresponding to human Axl (rhAxl-Fc chimera; R&D Systems, Cat. no. 154-AL), mouse Axl (rmAxl-Fc chimera; R&D Systems, R&D Systems; Cat. no. 854-AX) and human Tyro3 (rhTyro3/Dtk-Fc chimera; R&D Systems, Cat. no. 859-DK) were immobilized on the surface of CM5 sensor chip using amine coupling at the surface density of 1,308.0, 2,115.9 and 1,429.0 RU, respectively. The Biacore runs were performed in an automatic mode using Binding analysis wizard.
(§3) The sample containing MAb 10G5 or recombinant mouse (rm) Axl-ligand Gas6 (R&D Systems, Cat. no. 986-GS/CF) at concentration 10 μg/mL in HBS-EP buffer (GE Healthcare) was injected over the surfaces with immobilized antigens at flow rate of 30 μL/min for 3 min (association) followed by 5 min dissociation.
The sequence of Axl receptor from cynomolgus monkey (Macaca fascicularis; SEQ ID NO: 27) was retrieved from WO2009062690A1. Based on the sequence, recombinant extracellular domain of cyno-Axl was generated by transient expression in CHO cells as a fusion protein with human Fc. The recombinant cyno-Axl-Fc was purified to homogeneity using Protein A-Sepharose (GE Healthcare). The binding experiments were performed using Biacore 3000 instrument (GE Healthcare) at 25° C. The soluble recombinant antigens corresponding to human Axl (rhAxl-Fc chimera; R&D Systems, Cat. no. 154-AL) and cyno-Axl were immobilized on the surface of CM5 sensor chip using amine coupling at the surface density of 775 and 880 RU, respectively. The Biacore runs were performed in an automatic mode using Binding analysis wizard.
The sample containing MAb 10G5 or human Axl-specific MAb 5F11 (control) at concentration 10 μg/mL in HBS-EP buffer (GE Healthcare) was injected over the surfaces with immobilized antigens at flow rate of 30 μL/min for 3 min (association) followed by 5 min dissociation. […]

Experiment [3] deals with T2, Tyro3 (rhTyro3/Dtk-Fc chimera) (Homo sapiens, UniProt Q06418).
T2 construct: Soluble recombinant antigens corresponding to the extracellular domains of members of the human TAM receptor family; Fc; purchased R&D Systems 859-DK
T2 sequence (Q06418 41-429 limits assumed): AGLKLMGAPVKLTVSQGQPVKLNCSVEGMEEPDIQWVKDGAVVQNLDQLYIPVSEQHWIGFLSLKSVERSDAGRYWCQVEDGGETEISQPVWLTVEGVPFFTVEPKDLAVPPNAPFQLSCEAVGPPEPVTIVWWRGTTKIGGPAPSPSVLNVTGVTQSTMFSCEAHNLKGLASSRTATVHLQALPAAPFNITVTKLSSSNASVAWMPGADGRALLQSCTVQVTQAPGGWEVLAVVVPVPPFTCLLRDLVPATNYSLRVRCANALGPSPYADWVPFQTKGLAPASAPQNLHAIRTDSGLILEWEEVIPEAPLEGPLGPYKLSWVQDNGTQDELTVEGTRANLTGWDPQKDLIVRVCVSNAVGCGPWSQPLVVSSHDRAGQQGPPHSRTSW
The experiment can be described thus: Biacore binding analysis on immobilised human Tyro3. Particulars: 10 μg/mL in HBS-EP, 25° C. As for the experimental part: as §1, §2, §3

In experiment [4] the target is T3, mouse Axl (rmAxl-Fc chimera; Mm-Axl-Fc) (Mus musculus, UniProt Q00993).
T3 construct: The soluble recombinant antigens corresponding to human Axl (rhAxl-Fc chimera; R&D Systems, Cat. no; 154-AL), mouse Axl (rmAxl-Fc chimera; Fc; purchased R&D Systems 854-AX
T3 sequence (Q00993 19-445 limits assumed, change not shown): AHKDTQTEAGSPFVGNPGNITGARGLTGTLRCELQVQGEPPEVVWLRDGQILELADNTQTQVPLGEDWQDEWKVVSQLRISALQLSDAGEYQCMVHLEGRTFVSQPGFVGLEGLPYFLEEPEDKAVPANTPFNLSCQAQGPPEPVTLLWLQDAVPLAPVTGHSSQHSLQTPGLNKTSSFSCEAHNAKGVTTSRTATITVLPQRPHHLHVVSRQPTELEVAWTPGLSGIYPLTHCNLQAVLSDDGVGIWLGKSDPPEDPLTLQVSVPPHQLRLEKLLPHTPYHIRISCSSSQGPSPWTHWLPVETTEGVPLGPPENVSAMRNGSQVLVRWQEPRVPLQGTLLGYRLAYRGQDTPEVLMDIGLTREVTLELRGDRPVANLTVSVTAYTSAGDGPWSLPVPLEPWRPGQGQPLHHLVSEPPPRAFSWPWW
Put plainly: Biacore binding analysis on immobilised mouse Axl. Here is the method:
as §2, §3
Sensor chip with immobilised Axl: Hs-Axl-Fc (638.2 RU), Mm-Axl-Fc (334.5 RU), Rhe-Axl-Fc (350.2 RU)
All tests were performed in parallel on Hs-Axl-Fc, Mm-Axl-Fc and Rhe-Axl-Fc surfaces.

The mark [5] stands for this setting: rhAxl immobilized on Biacore sensor chip, 25° C., 1:1 Langmuir binding model.

B1: H1L1: humanised 10G5 variant; presumably VH GH1 (SEQ ID NO: 1) with VL GL1 (SEQ ID NO: 3) (antibody, V domains shown)
VH: EVQLVQSGAGLVQPGGSVRLSCAASGYSFTDFYINWVRQAPGKGLEWIARIFPGGDNTYYNEKFKGRFTLSADTSSSTAYLQLNSLRAEDTAVYYCARRGLYYAMDYWGQGTLVTVSS
VL: DIQMTQSPSSLSASVGDRVTITCRSSQSLVHSNGIPYLHWYQQKPGKAPKLLIYRVSNRFSGVPSRFSGSGSGTDFTLTISSLQPEDFATYYCSQGTHVPPTFGQGTKVEIK
modifications: hu10G5 VH(GH1); hu10G5 VL(GL1)
Take B1: the “KD lower than that of the chimeric antibody” value in experiment [1] (comparison referring to Table 3) was “at least 30%”. In experiment [1] (setting [5]), the “Off-rate (koff)” value came out at 0.000161 s⁻¹ and the “On-rate (kon)” value was 1.54e+06 M⁻¹ s⁻¹.

B2: mouse Gas6: recombinant mouse Axl-ligand Gas6 (R&D Systems) (protein)
chain: QCTPNPCDKKGTHICQDLMGNFFCVCTDGWGGRLCDKDVNECVQKNGGCSQVCHNKPGSFQCACHSGFSLASDGQTCQDIDECTDSDTCGDARCKNLPGSYSCLCDEGYTYSSKEKTCQDVDECQQDRCEQTCVNSPGSYTCHCDGRGGLKLSPDMDTCEDILPCVPFSMAKSVKSLYLGRMFSGTPVIRLRFKRLQPTRLLAEFDFRTFDPEGVLFFAGGRSDSTWIVLGLRAGRLELQLRYNGVGRITSSGPTINHGMWQTISVEELERNLVIKVNKDAVMKIAVAGELFQLERGLYHLNLTVGGIPFKESELVQPINPRLDGCMRSWNWLNGEDSAIQETVKANTKMQCFSVTERGSFFPGNGFATYRLNYTRTSLDVGTETTWEVKVVARIRPATDTGVLLALVGDDDVVPISVALVDYHSTKKLKKQLVVLAVEDVALALMEIKVCDSQEHTVTVSLREGEATLEVDGTKGQSEVSTAQLQERLDTLKTHLQGSVHTYVGGLPEVSVISAPVTAFYRGCMTLEVNGKILDLDTASYKHSDITSHSCPPVEHATP
On to B2, for which the “Binding to human Axl” value in experiment [2] was “strong binding”; in experiment [2] (listed as murine Gas 6), “binds strongly”. Besides, the “Binding to recombinant human Tyro3” value in experiment [3] is given as “somewhat weaker binding”; in experiment [3] (listed as murine Gas 6), “more weakly”. Moreover, the results for the “Binding to mouse Axl” value in experiment [4] and in experiment [4] (listed as murine Gas 6) were “strong binding” and “binds strongly”, respectively.
